Measured values reported in the supplement of paper PMC9732359.
± gives the uncertainty stated by the source.

Test: protein stability index of a GFP-peptide fusion (yeast GPS) (PSI 1-4); higher = more stable; sorted into four equal gates, so the index is relative within each strain
How it was run: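 Tiled 17-residue peptides from yeast proteins were fused downstream of GFP on a plasmid that also expresses Cherry, and the pooled library was carried in yeast. Mid-log cultures grown in leucine-free medium were sorted into four equal gates by GFP/Cherry fluorescence ratio. Plasmids from each gate were PCR-amplified and Illumina-sequenced, and reads were assigned to strains by barcodes. Each peptide's protein stability index is the sum, over gates, of the gate's read frequency multiplied by its gate number.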

Sequence | protein stability index (doa10∆) | protein stability index (pdr5∆) | protein stability index (san1∆) | protein stability index (ubr1∆)
DEELVSHFVSAVSTIAS [RPP0] | 3.73 ± 0.21 | 3.12 ± 0.28 | 2.76 ± 0.18 | 2.03 ± 0.2
VTHMDQIFVRGSQIKFI [SMD3] | 2.55 ± 0.13 | 2.67 ± 0.14 | 2.17 ± 0.13 | 2.04 ± 0.067
RCGRRSFHVQKKTCSSC [RPL37A] | 2.3 ± 0.04 | 2.56 ± 0.061 | 2.47 ± 0.048 | 2.39 ± 0.038
QRDLGLYVVGLFDTYHA [RRP6] | 2.38 ± 0.046 | 2.53 ± 0.043 | 1.91 ± 0.062 | 2.57 ± 0.033
SQSSAAAGASVDDKRRN [RPN6] | 3.38 ± 0.2 | 3.41 ± 0.088 | 3.02 ± 0.087 | 3.25 ± 0.087
NDEKRVKEEYDIWQSRD [YIL149C/MLP2] | 3.22 ± 0.062 | 3.06 ± 0.078 | 3.25 ± 0.049 | 3.39 ± 0.084
KNNNGDEKNKNNNEDNE [MED2] | 3.23 ± 0.12 | 3.17 ± 0.11 | 2.87 ± 0.11 | 3.15 ± 0.11
GLGVNRRILAAAAAAAA [SSN3] | 1.44 ± 0.07 | 1.52 ± 0.083 | 1.08 ± 0.2 | 1.95 ± 0.069
RKINLFYLYMLVQKFGG [SWI1] | 1.59 ± 0.099 | 1.23 ± 0.048 | 1.16 ± 0.18 | 1.08 ± 0.072
LKNTKYFQQTTIDWVEA [PRP8] | 2.93 ± 0.078 | 2.96 ± 0.08 | 2.83 ± 0.054 | 2.75 ± 0.072
QFPEIAYPGKLICPQYG [CSL4] | 2.01 ± 0.054 | 2.11 ± 0.059 | 1.94 ± 0.1 | 2.17 ± 0.053
VGDFLLQYANNAVISHA [SIN4] | 1.99 ± 0.074 | 1.79 ± 0.05 | 1.82 ± 0.074 | 1.49 ± 0.035
LESFQAVYNKLTGKQIV [RPS7A] | 1.68 ± 0.055 | 1.32 ± 0.044 | 1.28 ± 0.098 | 1.53 ± 0.052
AFIFGLQDELKELQLEK [SMC3] | 3.23 ± 0.12 | 3.47 ± 0.11 | 3.11 ± 0.12 | 3.54 ± 0.19
TTVQVAEEAIVNAMRVL [PRE4] | 2.91 ± 0.12 | 2.72 ± 0.091 | 1.88 ± 0.27 | 2.54 ± 0.09
AGMTTIVRDLDRPGSKF [RPL3] | 2.39 ± 0.11 | 3.24 ± 0.18 | 2.95 ± 0.08 | 3.15 ± 0.11
ITHAHSLSNPNSTATMQ [PGD1] | 2.8 ± 0.055 | 2.44 ± 0.054 | 2.5 ± 0.063 | 2.86 ± 0.043
SCGYPSAKTRSHNWAAK [RPL37B] | 2.95 ± 0.076 | 3.15 ± 0.059 | 3.3 ± 0.09 | 2.91 ± 0.069
FGDTKSESKQLGNTSSV [SWI3] | 3.54 ± 0.12 | 3.16 ± 0.081 | 3.13 ± 0.066 | 3.35 ± 0.05
QIIQRDKINKYSLIRET [SNF5] | 1.39 ± 0.093 | 1.3 ± 0.13 | – | 1.15 ± 0.2
DVNDVLTKYIRSKNLIF [GRR1] | 2.68 ± 0.066 | 2.78 ± 0.08 | 2.19 ± 0.083 | 2.68 ± 0.043
NILIASLMDTLITPAVR [YCG1] | 1.41 ± 0.063 | 1.91 ± 0.073 | 1.58 ± 0.13 | 1.78 ± 0.055
MCEQALSALFTISSKPD [YCS4] | 2.22 ± 0.038 | 1.72 ± 0.04 | 1.87 ± 0.056 | 1.77 ± 0.032
KYAQDGAGIERELARIK [RPL3] | 3.54 ± 0.2 | 3.46 ± 0.16 | – | –
EDLHEKNDSAEVRQETQ [NUT1] | 3.48 ± 0.1 | 3.28 ± 0.2 | 3.13 ± 0.083 | 3.53 ± 0.075
RSKNLIFNGETLEDALR [GRR1] | 2.92 ± 0.093 | 2.58 ± 0.054 | 2.65 ± 0.057 | 2.77 ± 0.07
